Source: patent US20220242962A1 (APTEVO RESEARCH AND DEVELOPMENT, published 2022)

Target: T1, Fc gamma receptor RIIIA V176 (human, UniProt P08637 17-208)
T1 construct: soluble SPR analyte
Test: SPR, construct immobilized, receptor injected at 2 uM

T1 sequence (P08637 17-208 F176V): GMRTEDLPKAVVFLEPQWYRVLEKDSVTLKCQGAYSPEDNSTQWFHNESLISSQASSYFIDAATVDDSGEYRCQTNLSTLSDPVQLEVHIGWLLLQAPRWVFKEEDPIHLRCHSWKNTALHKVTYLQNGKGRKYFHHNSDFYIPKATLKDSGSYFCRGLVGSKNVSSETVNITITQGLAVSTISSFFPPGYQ

- Max RU value during association: 0 RU
B1: FXX01119 (bispecific antibody)
chain: EVQLVQSGAEVKKPGASVKVSCKASGYTFTSYWMNWVRQAPGQGLEWMGNIYPSGGSTNYAQKFQGRVTMTVDTSTSTVYMELSSLRSEDTAVYYCASFSDGYYAYAMDYWGQGTLVTVSSGGGGSGGGGSGGGGSGGGGSEIVMTQSPATLSLSPGERATLSCRASQSVSSYLNWYQQKPGQAPRLLIYYASRRHTGIPARFSGSGSGTDFTLTISSLQPEDFAVYYCQQGYNLPYTFGQGTKVEIKEPKSSDKTHTCPPCPAPPAAAPSVFLFPPKPKDTLMISRTPEVTCVVVDVSHEDPEVKFNWYVDGVEVHNAKTKPREEQYNSTYRVVSVLTVLHQDWLNGKEYKCAVSNKALPAPIEKTISKAKGQPREPQVYTLPPSRDELTKNQVSLTCLVKGFYPSDIAVEWESNGQPENNYKTTPPVLDSDGSFFLYSKLTVDKSRWQQGNVFSCSVMHEALHNHYTQKSLSLSPGGGGSPSSYVLTQPPSVSVAPGKTARITCGGNNIGSKSVNWFQQKPGQAPVLVVYDDSGRPSGVPNRFSGSTSGNTATLTISRVEAGDEADYYCQVWDSSSDHVVFGGGTKLTVLGGGGSGGGGSGGGGSGGGGSQVQLVESGGGVVQPGRSLRLSCAASGFTLSYYGMHWVRQAPGKGLEWVAAISHDGSDKYYADSVKGRFTISRDNSKNRLYLQMNSLRAEDTAVYYCSNDQFDPWGQGTLVTVSSR
notes: ADAPTIR anti-4-1BB x anti-OX40, pI variant; PAA (del) Fc
